US20110217237A1 (AbbVie / Abbott, published 2011)
Where two headings read alike, the source gives them in different places. Values belong to the binder of their own block, whether it stands above or below them.

What was measured:
[1] = biological target: T1, cynomolgus monkey DLL4 extracellular domain (cynomolgus monkey); test: SPR (Biacore)
T1 construct: extracellular domain; also called cynoDLL4 ECD; Cyno DLL4
Procedure: (§1) The BIACORE® surface plasmon resonance assay (Biacore, Inc., Piscataway, N.J., US) determines the affinity of antibodies with kinetic measurements of on-rate and off-rate constants. Binding of DLL4 antibodies to a purified recombinant DLL4 extracellular domain (ECD) was determined by surface plasmon resonance-based measurements with a Biacore® instrument (either a Biacore 2000, Biacore 3000, or Biacore T100; GE Healthcare, Piscataway, N.J., US) using running buffer HBS-EPB (10 mM HEPES [pH 7.4], 150 mM NaCl, 3 mM EDTA, 0.1 mg/ml BSA and 0.005% surfactant P20) at 25° C. For example, approximately 9000 RU of goat anti-human Fc specific polyclonal antibody (Thermo Fisher Scientific Inc., Rockford, Ill., US) diluted in 10 mM sodium acetate (pH 4.5) is directly immobilized across a CMS research grade biosensor chip using a standard amine coupling kit according to manufacturer's instructions and procedures at 25 μg/ml. Unreacted moieties on the biosensor surface were blocked with ethanolamine. For kinetic analysis, rate equations derived from the 1:1 Langmuir binding model were fitted simultaneously to multiple antigen injections (using global fit analysis) with the use of Scrubber 2 (BioLogic Software), Biacore Biaevaluation 4.0.1 software or Biacore T100 Evaluation software. Purified antibodies were diluted in running buffer for capture across goat anti-human Fc reaction surfaces. Antibodies to be captured as a ligand (1 μg/ml) were injected over reaction matrices at a flow rate of 10 μl/min. During the assay, all measurements were referenced against the capture surface alone (i.e., with no captured anti-DLL4 antibody). […] The equilibrium dissociation constant KD (M) of the reaction between antibodies and the target antigen was then calculated from the kinetic rate constants by the following formula: KD=Koff/Kₒₙ. Binding was recorded as a function of time and kinetic rate constants were calculated.

[2] = biological target: T2, human DLL4 extracellular domain (human, UniProt Q9NR61 27-529); test: SPR (Biacore)
T2 construct: purified recombinant ECD; biotin-labelled or 6xHis-tagged depending on the assay; also called huDLL4 ECD; hu DLL4 ECD
Procedure: as §1

[3] = biological target: T2, human DLL4 extracellular domain; test: binding ELISA, DLL4 ECD
[4] = biological target: T3, mouse DLL4 extracellular domain (mouse, UniProt Q9JI71 27-532); test: binding ELISA, DLL4 ECD
T3 construct: extracellular domain; also called muDLL4 ECD; murine DLL4

mouse DLL4 on cells [5] = biological target: T4, mouse DLL4 on cells (mouse, UniProt Q9JI71 27-686); test: FACS on cells expressing mouse DLL4
T4 construct: whole, on cells; also called mouse DLL4-293G; mu DLL4 cells

[6] = biological target: T5, human DLL4, full length, on cells (human, UniProt Q9NR61 27-685); test: competition FACS: huNotch-1-biotin to DLL4 cells
T5 construct: also called huDLL4 cells; human DLL4-293G
Procedure: (§2) Notch blocking assay: Briefly, stable cell lines overexpressing cell-surface DLL4 were harvested from tissue culture flasks and re-suspended in phosphate buffered saline (PBS) containing 1% bovine serum albumin and 1 mM CaCl₂ (FACS buffer). HEK293G-DLL4 cells were dispensed into 96-well plate (v-bottom) at 1.5×10⁵ cells/well in FACS buffer. After spinning down cells and discarding the supernatant, 50 μL of purified IgG with appropriate dilution were added to each well, and incubated on ice at 4° C. for 60 minutes, followed by addition of 50 μL/well of Notch1-biotin at 0.2 μg/mL for human DLL4-293G or 2.0 μg/mL for mouse DLL4-293G (1.0 or 0.1 μg/mL final) for an additional 1 hour incubation ice at 4° C. After washing the cells two times with FACS buffer, 50 μL of R-phycoerythrin-conjugated streptavidin (1:150 dilution in FACS buffer) (Jackson ImmunoResearch, West Grove, Pa., Cat.#016-110-084) were added. Following an incubation on ice (4° C., 60 minutes), cells were washed three times and resuspended in FACS buffer. Fluorescence was measured using a Becton Dickinson FACSCalibur-HTS (Becton Dickinson, San Jose, Calif.). Data were analyzed using Graphpad Prism software, and IC₅₀ values were reported as the concentration of antibody to achieve 50% reduction of Notch1 bound to DLL4 expressing cells. […]

[7] = biological target: T5, human DLL4, full length, on cells; test: FACS, DLL4 cells
Procedure: (§3) Stable cell lines overexpressing cell-surface DLL4 were harvested from tissue culture flasks, washed four times and resuspended in phosphate buffered saline (PBS) containing 1% bovine serum albumin and 1 mM CaCl₂ (FACS buffer). 1.5×10⁵ cells were incubated with antibodies at various concentrations in FACS buffer for 60 minutes on ice. […] Following an incubation on ice (4° C., 60 minutes), cells were washed three times and resuspended in FACS buffer. Fluorescence was measured using a Becton Dickinson FACSCalibur-HTS (Becton Dickinson, San Jose, Calif., US). Data were analyzed using Graphpad Prism software and EC₅₀ values were reported as the concentration of antibody to achieve 50% of maximal DLL4 antibodies binding to DLL4 expressing cells. […]

[8] = biological target: T6, rat DLL4 extracellular domain (rat, UniProt D3ZHH1 28-530); test: SPR (Biacore)
T6 construct: extracellular domain; also called ratDLL4 ECD
How it was run: (§4)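 Purified anti-DLL4 antibodies (1 μg/ml) captured on immobilized goat anti-human Fc, with DLL4 ECD injected as analyte; HBS-EPB running buffer (pH 7.4), 25° C, referenced against capture-only surface. On/off rates from global 1:1 Langmuir fit; KD = Koff/Kon.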

[9] = biological target: T2, human DLL4 extracellular domain; test: competition ELISA: biotin-DLL4 ECD to coated huNotch-1
Procedure: (§5) Plates were then washed 3 times with wash buffer (PBS, 0.05% Tween-20) and blocked with 200 μl/well blocking buffer (D-PBS, 1% BSA, 1 mM CaCl₂, 0.05% Tween-20) for 1 hour at 25° C. While blocking, biotin labeled DLL4 extracellular domain (14 nM) was mixed with antibody (30 pM-66 nM, 3-fold serial dilution in blocking buffer) for 1 hour at 25° C. with shaking. Assay plates were washed after blocking, and incubated with DLL4/antibody mixtures (100 μl/well, 1 hour at 25° C. with shaking). Plates were washed again and 100 μl/well streptavidin conjugated with HRP (Fitzgerald #65R-S104PHRPx, diluted 1:5,000 in blocking buffer) was added for 1 hour at 25° C. with shaking. After a final wash, plates were developed using 100 μl/well substrate (TMB Sigma #T8665), and the reaction was stopped using 100 μl/well 1N HCl, and the absorbance was read at 450 nm. Data were analyzed using Graphpad Prism software and IC₅₀ values were reported as the concentration of antibody to achieve 50% reduction of DLL4 bound to Notch1.
(§6) Further characterization determined 37D10 and 40B10 were identical rat mAbs.

[10] = biological target: T5, human DLL4, full length, on cells; test: cell-based or functional assay
mouse DLL4 on cells [11] = biological target: T4, mouse DLL4 on cells; test: competition FACS: huNotch-1-biotin to DLL4 cells
Procedure: as §2

mouse DLL4 on cells [12] = biological target: T4, mouse DLL4 on cells; test: FACS, DLL4 cells
Procedure: as §3

[13] = biological target: T2, human DLL4 extracellular domain; test: competition ELISA vs Notch-1
[14] = biological target: T3, mouse DLL4 extracellular domain; test: competition ELISA vs Notch-1
[15] = biological target: T2, human DLL4 extracellular domain; test: SPR (Biacore); remark: listed apart in the source
[16] = biological target: T3, mouse DLL4 extracellular domain; test: SPR (Biacore)
How it was run: as §4

[17] = biological target: T3, mouse DLL4 extracellular domain; test: competition ELISA: biotin-DLL4 ECD to coated huNotch-1
Procedure: as §5, §6

T3 sequence (Q9JI71 27-532): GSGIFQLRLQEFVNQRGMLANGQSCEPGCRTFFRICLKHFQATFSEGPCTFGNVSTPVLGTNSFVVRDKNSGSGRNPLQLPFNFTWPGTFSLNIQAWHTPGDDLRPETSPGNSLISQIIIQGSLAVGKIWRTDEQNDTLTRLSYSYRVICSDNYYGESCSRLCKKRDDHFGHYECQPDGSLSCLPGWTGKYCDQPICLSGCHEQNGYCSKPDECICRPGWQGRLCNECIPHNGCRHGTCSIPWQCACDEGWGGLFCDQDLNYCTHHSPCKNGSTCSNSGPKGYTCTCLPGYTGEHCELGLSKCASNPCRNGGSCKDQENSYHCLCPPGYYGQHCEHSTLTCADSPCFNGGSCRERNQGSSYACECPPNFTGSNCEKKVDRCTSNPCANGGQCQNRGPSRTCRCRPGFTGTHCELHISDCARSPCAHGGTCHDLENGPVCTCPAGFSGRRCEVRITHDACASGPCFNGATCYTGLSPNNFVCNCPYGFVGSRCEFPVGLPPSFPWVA
T5 sequence (Q9NR61 27-685 limits assumed): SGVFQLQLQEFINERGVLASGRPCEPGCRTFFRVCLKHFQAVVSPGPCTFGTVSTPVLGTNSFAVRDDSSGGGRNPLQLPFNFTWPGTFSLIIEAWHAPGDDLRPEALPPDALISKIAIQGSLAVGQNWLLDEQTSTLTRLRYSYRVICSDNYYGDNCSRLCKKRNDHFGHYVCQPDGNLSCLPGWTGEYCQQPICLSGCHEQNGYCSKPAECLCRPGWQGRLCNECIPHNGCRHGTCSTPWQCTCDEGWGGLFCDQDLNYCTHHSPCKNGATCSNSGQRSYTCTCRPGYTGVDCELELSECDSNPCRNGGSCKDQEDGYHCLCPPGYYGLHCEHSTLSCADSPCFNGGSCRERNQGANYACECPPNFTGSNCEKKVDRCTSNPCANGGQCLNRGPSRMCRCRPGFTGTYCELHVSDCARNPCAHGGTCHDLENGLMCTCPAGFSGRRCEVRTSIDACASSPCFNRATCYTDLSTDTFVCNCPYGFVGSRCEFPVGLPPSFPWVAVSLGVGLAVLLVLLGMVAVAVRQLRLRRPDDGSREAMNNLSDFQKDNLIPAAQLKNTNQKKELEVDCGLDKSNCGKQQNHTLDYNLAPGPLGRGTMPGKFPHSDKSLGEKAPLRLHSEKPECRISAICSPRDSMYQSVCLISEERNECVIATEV
T4 sequence (Q9JI71 27-686): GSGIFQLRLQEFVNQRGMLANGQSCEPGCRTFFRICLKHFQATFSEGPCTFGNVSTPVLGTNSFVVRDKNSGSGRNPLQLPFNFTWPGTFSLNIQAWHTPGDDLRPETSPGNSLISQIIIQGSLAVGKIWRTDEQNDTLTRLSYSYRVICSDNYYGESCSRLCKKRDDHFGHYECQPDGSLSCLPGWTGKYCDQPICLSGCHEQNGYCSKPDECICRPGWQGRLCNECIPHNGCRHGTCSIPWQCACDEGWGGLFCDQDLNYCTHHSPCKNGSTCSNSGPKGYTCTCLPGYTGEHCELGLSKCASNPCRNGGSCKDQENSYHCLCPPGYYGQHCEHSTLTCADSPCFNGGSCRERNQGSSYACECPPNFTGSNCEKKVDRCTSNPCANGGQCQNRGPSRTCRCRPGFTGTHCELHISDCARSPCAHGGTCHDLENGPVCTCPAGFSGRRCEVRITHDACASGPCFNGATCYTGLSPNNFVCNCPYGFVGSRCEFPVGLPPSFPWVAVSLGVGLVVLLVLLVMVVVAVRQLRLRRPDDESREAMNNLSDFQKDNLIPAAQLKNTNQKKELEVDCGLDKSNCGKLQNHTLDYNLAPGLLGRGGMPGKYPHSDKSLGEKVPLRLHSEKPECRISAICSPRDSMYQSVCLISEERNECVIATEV
T2 sequence (Q9NR61 27-529 limits assumed): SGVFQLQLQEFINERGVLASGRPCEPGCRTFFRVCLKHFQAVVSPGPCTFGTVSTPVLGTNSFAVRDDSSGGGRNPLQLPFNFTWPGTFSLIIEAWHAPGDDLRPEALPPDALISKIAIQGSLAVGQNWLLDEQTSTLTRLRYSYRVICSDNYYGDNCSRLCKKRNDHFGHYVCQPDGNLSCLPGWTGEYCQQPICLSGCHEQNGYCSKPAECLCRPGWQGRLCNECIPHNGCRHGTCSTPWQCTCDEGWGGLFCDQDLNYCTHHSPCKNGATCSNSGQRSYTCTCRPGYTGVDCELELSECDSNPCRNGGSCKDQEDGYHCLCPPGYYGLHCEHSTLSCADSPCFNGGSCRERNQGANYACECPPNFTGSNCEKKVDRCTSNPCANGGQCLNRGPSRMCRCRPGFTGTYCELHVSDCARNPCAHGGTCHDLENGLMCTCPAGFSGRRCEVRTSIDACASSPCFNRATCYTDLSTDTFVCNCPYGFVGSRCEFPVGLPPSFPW
T6 sequence (D3ZHH1 28-530): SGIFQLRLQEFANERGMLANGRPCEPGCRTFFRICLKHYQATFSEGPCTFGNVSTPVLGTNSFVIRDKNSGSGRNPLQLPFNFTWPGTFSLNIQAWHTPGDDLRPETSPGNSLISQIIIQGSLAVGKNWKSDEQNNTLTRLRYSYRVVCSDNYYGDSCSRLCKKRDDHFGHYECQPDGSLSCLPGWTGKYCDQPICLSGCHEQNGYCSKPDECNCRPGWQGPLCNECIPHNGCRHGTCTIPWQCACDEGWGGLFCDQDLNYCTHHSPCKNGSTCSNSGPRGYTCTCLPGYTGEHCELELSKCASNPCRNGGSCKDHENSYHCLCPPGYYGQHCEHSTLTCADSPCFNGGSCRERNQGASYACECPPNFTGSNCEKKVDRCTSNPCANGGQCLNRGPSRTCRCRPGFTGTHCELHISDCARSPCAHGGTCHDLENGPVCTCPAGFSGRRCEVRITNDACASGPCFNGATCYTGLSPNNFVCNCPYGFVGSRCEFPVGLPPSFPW

Kd [1]: 0.4 nM
koff [1]: 9.8e-05 s⁻¹
kon [1]: 260000 M⁻¹ s⁻¹
Kd [2]: 0.3 nM
koff [2]: 0.00011 s⁻¹
kon [2]: 400000 M⁻¹ s⁻¹
EC50 [3]: 0.06 nM
binding result [4]: no binding
binding result (mouse DLL4 on cells [5]): no binding
IC50 [6]: 1.7 nM
EC50 [7]: 1.2 nM
binding result [8]: no binding
IC50 [9]: 3.63 nM
Notch activation Inhibition (IC50, nM), huDLL4 cell/Notch reporter cells [10]: 0.5 nM
B1: 38H12 rat anti-DLL4 monoclonal antibody (antibody, rat IgG2a, V domains shown)
VH: EVQLVESGGGLVQPGRSLKLSCAASGFTFSNYGMYWIRQAPTKGLQWVAFISHGGGITYYRDSVKGRFTISRDNAKSTLYLQMDSLRSEDTATYHCAALNWELGIDYWGQGVMVTVSS
VL: DIQMTQSPASLSASLGETISIECRASEDIYSNLAWYQKKSGKSPQLLIYAANRLQDGVPSRFSGSGSGTQYSLKISGMQPEDEGDYFCLQGSKFPLTFGSGTKLEIKR
notes: rat IgG2a/k hybridoma mAb; also called MC10-38H12.2G8; 38H12 rat mAb

Kd [1]: 8.1 nM
koff [1]: 0.00093 s⁻¹
kon [1]: 110000 M⁻¹ s⁻¹
Kd [2]: 5.8 nM
koff [2]: 0.0011 s⁻¹
kon [2]: 190000 M⁻¹ s⁻¹
EC50 [3]: 0.06 nM
EC50 [4]: 0.11 nM
IC50 (mouse DLL4 on cells [11]): 0.8 nM
IC50 [6]: 8.4 nM
EC50 (mouse DLL4 on cells [12]): 0.8 nM
EC50 [7]: 34.8 nM
IC50 [13]: 0.5 nM
IC50 [14]: 1.1 nM
binding result [8]: no binding
Kd [15]: 6 nM
Kd [16]: 23 nM
koff [16]: 0.0029 s⁻¹
kon [16]: 130000 M⁻¹ s⁻¹
IC50 [9]: 0.78 nM
IC50 [17]: 0.79 nM
Notch activation Inhibition (IC50, nM), huDLL4 cell/Notch reporter cells [10]: 2.9 nM
B2: 1A11 rat anti-DLL4 monoclonal antibody (antibody, rat IgG1, V domains shown)
VH: EVQLVESGGGLVQPGRSMKLSCAASGFTFRNFPMAWVRQAPTRGLEWVATISSSDGTTYYRDSVKGRFTISRDNAKSTLYLQVNSLRSEDTATYYCSRGYYNSPFAYWGQGTLVTVSS
VL: DIQMTQSPASLSASLGETVTIECRASEDIYSNLAWYQQKPGNSPQLLIFDTNNLADGVPSRFSGSGSGTQSSLKINSLQSEDVASYFCQQYNNYPPTFGGGTKLELKR
notes: rat IgG1/K hybridoma mAb; also called MC13-1A11.2E1; 1A11 (rat mAb)

Kd [1]: < 617 nM
kon [1]: 40000 M⁻¹ s⁻¹
Kd [2]: 484 nM
koff [2]: 0.07 s⁻¹
kon [2]: 140000 M⁻¹ s⁻¹
EC50 [3]: 0.12 nM
EC50 [4]: 0.14 nM
IC50 (mouse DLL4 on cells [11]): 3.8 nM
IC50 [6]: 5.5 nM
EC50 (mouse DLL4 on cells [12]): 0.7 nM
EC50 [7]: 2.3 nM
Kd [16]: 135 nM
koff [16]: 0.0135 s⁻¹
kon [16]: 100000 M⁻¹ s⁻¹
IC50 [9]: 5.39 nM
IC50 [17]: 3.36 nM
B3: 37D10 rat anti-DLL4 monoclonal antibody (antibody, rat IgG2a, V domains shown)
VH: AVQLVESGGGLVQPKESLKISCAASGFTFSNAAMYWVRLAPGKGLEWVARIRTKPNNYATYYAESVKGRFTISRDDSKSMVYVQMDNLKTEDTAMYYCTAAPWRDSYAHVYWGQGVMVTVSS
VL: DIQMTQSPPVLSASVGDRVTLSCKASQNIHKNLDWYQQKHGDAPKLLIYYTDHLQTGVPSRFSGSGSATDYTLTISSLQPEDVATYYCYQYNGGPFTFGSGTKLEIKR
notes: rat IgG2a/k hybridoma mAb; also called 40B10; 37D10 = 40B10
